Laboratory results as given in patent publication US20250099635A1, “IIMMUNOCONJUGATES COMPRISING KALLIKREIN RELATED PEPTIDASE 2 ANTIGEN BINDING DOMAINS AND THEIR USES” (Janssen Biotech, Inc., priority 2022, published 2025).

B1: KL2B242 (Fab) (antibody, V domains shown)
VH: QVQLQESGPGLVKPSETLSLTCTVSGGSISSYYWSWLRQPAGSGLEWIGRLYVSGFTNYNPSLKSRVTLSLDPSRNQLSLKLSSVTAADTAVYYCAGDSGNYWGWFDPWGQGTLVTVSS
VL: SYELTQPPSVSVSPGETASITCSGDQLGENYACWYQQKPGQSPVLVIYQDSKRPSGIPERFSGSNSGNTATLTISGTQALDEADYYCQAWDNSIVVFGGGTKLTVL
B2: KL2B467 (Fab) (antibody, V domains shown)
VH: QVQLVESGGGVVQPGRSLRLSCAASGFTFSYYGMHWVRQAPGKGLEWVAFISYDGSNKYYADSVKGRFTISRDNSKNTLYLQMNSLRAEDTAVYYCAHLPYSGSYWAFDYWGQGTQVTVSS
VL: QSVLTQPPSVSVAPGQTASITCGGDNIGSKSVHWYQQKPGQAPVLVVYDNSDRPSGIPERFSGSNSGTTATLTISRVEAGDEADYYCQVWDSSSDHPVVFGGGTKVTV
B3: KL2B53 (Fab) (antibody, V domains shown)
VH: EVQLVESGGGVVQPGRSLRLSCVASGFTFSSYDIHWVRQAPGKGLEWVAIISYDGSKKDYTDSVKGRFTISRDNSKNTLYLQMDSLRVEDSAVYSCARESGWSHYYYYGMDVWGQGTMVTVSS
VL: DIVMTQSPSSLSASVGDRVTITCRASQDISNYLAWYQQKPGKVPKFLIYAASTLHSGVPSRFSGSGSGTDFTLTISSLQPEDVATYYCQKYNSAPYTFGQGTRLEIK

Assay: Thermal stability (Tm) by Differential Scanning Fluorimetry (NanoDSF)
Assay type: physicochemical
Conditions: 0.5 mg/mL in Phosphate Buffered Saline, pH 7.4
Experimental: Thermal stability was determined by Differential Scanning Fluorimetry (NanoDSF) using an automated Prometheus instrument. NanoDSF was used to measure Tm of molecules at a concentration of 0.5 mg/mL in Phosphate Buffered Saline, pH 7.4. Measurements were made by loading samples into 24 well capillary from a 384 well sample plate. Duplicate runs were performed for each sample. The thermal scans span from 20° C. to 95° C. at a rate of 1.0° C./minute. Intrinsic tryptophan and tyrosine fluorescence were monitored at the emission wavelengths of 330 nm and 350 nm, and the F350/F330 nm ratio were plotted against temperature to generate unfolding curves.

Molecule | Tm (° C.) [°C]
B1 | >70
B2 | >70
B3 | >70
